From patent US20140377774 come the findings set out here.

This series concerns the target T1, wild-type yeast Ugp1.
T1 chain: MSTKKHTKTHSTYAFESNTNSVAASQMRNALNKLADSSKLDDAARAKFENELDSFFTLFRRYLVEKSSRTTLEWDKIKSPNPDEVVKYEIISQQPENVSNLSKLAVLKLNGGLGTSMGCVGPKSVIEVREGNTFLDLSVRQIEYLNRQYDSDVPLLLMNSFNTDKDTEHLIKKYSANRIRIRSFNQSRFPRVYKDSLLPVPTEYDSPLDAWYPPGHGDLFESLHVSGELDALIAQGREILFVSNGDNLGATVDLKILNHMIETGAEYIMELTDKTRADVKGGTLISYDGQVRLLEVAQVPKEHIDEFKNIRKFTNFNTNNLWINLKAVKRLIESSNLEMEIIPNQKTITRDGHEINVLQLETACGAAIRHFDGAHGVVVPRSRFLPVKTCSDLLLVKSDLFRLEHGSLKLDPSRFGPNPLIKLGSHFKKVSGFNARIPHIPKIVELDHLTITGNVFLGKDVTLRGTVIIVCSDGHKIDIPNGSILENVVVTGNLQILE

B1: human PASK (protein)
chain: MEDGGLTAFEEDQRCLSQSLPLPVSAEGPAAQTTAEPSRSFSSAHRHLSRRNGLSRLCQSRTALSEDRWSSYCLSSLAAQNICTSKLHCPAAPEHTDPSEPRGSVSCCSLLRGLSSGWSSPLLPAPVCNPNKAIFTVDAKTTEILVANDKACGLLGYSSQDLIGQKLTQFFLRSDSDVVEALSEEHMEADGHAAVVFGTVVDIISRSGEKIPVSVWMKRMRQERRLCCVVVLEPVERVSTWVAFQSDGTVTSCDSLFAHLHGYVSGEDVAGQHITDLIPSVQLPPSGQHIPKNLKIQRSVGRARDGTTFPLSLKLKSQPSSEEATTGEAAPVSGYRASVWVFCTISGLITLLPDGTIHGINHSFALTLFGYGKTELLGKNITFLIPGFYSYMDLAYNSSLQLPDLASCLDVGNESGCGERTLDPWQGQDPAEGGQDPRINVVLAGGHVVPRDEIRKLMESQDIFTGTQTELIAGGQLLSCLSPQPAPGVDNVPEGSLPVHGEQALPKDQQITALGREEPVAIESPGQDLLGESRSEPVDVKPFASCEDSEAPVPAEDGGSDAGMCGLCQKAQLERMGVSGPSGSDLWAGAAVAKPQAKGQLAGGSLLMHCPCYGSEWGLWWRSQDLAPSPSGMAGLSFGTPTLDEPWLGVENDREELQTCLIKEQLSQLSLAGALDVPHAELVPTECQAVTAPVSSCDLGGRDLCGGCTGSSSACYALATDLPGGLEAVEAQEVDVNSFSWNLKELFFSDQTDQTSSNCSCATSELRETPSSLAVGSDPDVGSLQEQGSCVLDDRELLLLTGTCVDLGQGRRFRESCVGHDPTEPLEVCLVSSEHYAASDRESPGHVPSTLDAGPEDTCPSAEEPRLNVQVTSTPVIVMRGAAGLQREIQEGAYSGSCYHRDGLRLSIQFEVRRVELQGPTPLFCCWLVKDLLHSQRDSAARTRLFLASLPGSTHSTAAELTGPSLVEVLRARPWFEEPPKAVELEGLAACEGEYSQKYSTMSPLGSGAFGFVWTAVDKEKNKEVVVKFIKKEKVLEDCWIEDPKLGKVTLEIAILSRVEHANIIKVLDIFENQGFFQLVMEKHGSGLDLFAFIDRHPRLDEPLASYIFRQLVSAVGYLRLKDIIHRDIKDENIVIAEDFTIKLIDFGSAAYLERGKLFYTFCGTIEYCAPEVLMGNPYRGPELEMWSLGVTLYTLVFEENPFCELEETVEAAIHPPYLVSKELMSLVSGLLQPVPERRTTLEKLVTDPWVTQPVNLADYTWEEVFRVNKPESGVLSAASLEMGNRSLSDVAQAQELCGGPVPGEAPNGQGCLHPGDPRLLTS
Turning to B1, the “Ugp1 phosphorylation (Western blot with phospho-specific Ugp1 antibody)” value is “transfected with human PASK and wild-type yeast Ugp1 (to promote phosphorylation) (lane 1) ... the phospho-Ugp1 band in lane 1”.
